Holding throughout (experiment): xCELLigence real-time killing assay (impedance)
Type in all cases: cell-based, human

Experiment [1] concerns HPAF II-MUC1* pancreatic cancer cells. The settings on record: readout 120 hours post ADC addition. The protocol: FIGS. 53A-53I show traces from the real-time killing assays performed on an xCELLigence instrument. In this assay, impedance is measured in real-time. When the adherent cancer cells are killed and come off of the electrode surface, impedance (insulation) decreases. HPAF II-MUC1* pancreatic cancer cells, engineered to express more MUC1*, were plated onto multi-electrode-well plates at 5,000 cells per well and allowed to adhere and grow for 24 hours before the addition of ADCs. Either MNC2-MMAE, DAR 4.1, MN20A10-MMAE, DAR 5.8, MNC2-MMAF, DAR 3.7, MN20A10-MMAF, DAR 3.8, MNC2-Deruxtecan, DAR 7.2, or MN20A10-Deruxtecan, DAR 4.6, was then added to the cancer cells. […] Taxol and Triton are added as the positive killing control. […] Taxol and Triton are added as the positive killing control. […] As indicated, essentially all the pancreatic tumor cells were killed at an MNC2-MMAE concentration of 56 nM. […] As indicated, essentially all the tumor cells were killed at an MNC2-MMAF concentration of 56 nM. […] As indicated, essentially all the tumor cells were killed at an MN20A10-MMAE concentration of 56 nM-19 nM. […] As indicated, essentially all the tumor cells were killed at an MN20A10-MMAF concentration of 56 nM.
(§1) To assess real-time killing of target cancer cells including breast cancer cells (T47D), non-small cell lung cancer cells (NCI-H1975) and pancreatic cancer cells (HP AF II) assays were performed on an xCELLigence RTCA MP Instrument (Agilent). Target Cancer cells were seeded onto a multi-electrode well plate at a density of 5000 cells/well (100 μL of a 50,000 cells/mL stock) and incubated for 24 hr in a 37° C./5% CO2 incubator. mAb MNC2 ADCs or mAb MN20A10-ADCs were prepared as a 2× solution in corresponding growth media and 100 μL of each concentration was added to target cells. As a positive control (100% cell killing) cells were treated with either 1% triton or 1 μM Taxol instead of ADC. After 40-120 hours incubation in a 37° C./5% CO2 incubator cell killing was assessed. In this assay, impedance is measured in real-time. […]

Experiment [2] deals with HPAF II wild-type (WT) pancreatic cancer cells. The settings on record: for ADC concentration at which essentially all the tumor cells were killed: readout 120 hours post ADC addition. The protocol:
In this assay, impedance is measured in real-time. When the adherent cancer cells are killed and come off of the electrode surface, impedance (insulation) decreases. HPAF II wild-type (WT) pancreatic cancer cells were plated onto multi-electrode-well plates at 5,000 cells per well and allowed to adhere and grow for 24 hours before the addition of ADCs. Either MNC2-MMAE, DAR 4.1, MN20A10-MMAE, DAR 5.8, MNC2-MMAF, DAR 3.7, MN20A10-MMAF, DAR 3.8, MNC2-Deruxtecan, DAR 7.2, or MN20A10-Deruxtecan, DAR 4.6, was then added to the cancer cells. […] Taxol and Triton are added as the positive killing control. […] Taxol and Triton are added as the positive killing control. […] As indicated, essentially all the pancreatic tumor cells were killed at an MNC2-MMAE concentration of 56 nM. […] As indicated, essentially all the tumor cells were killed at an MNC2-MMAF concentration of 56 nM. […] Significant killing is measured at 120 hours at a concentration of about 56 nM. […] As indicated, essentially all the tumor cells were killed at an MN20A10-MMAE concentration of 56 nM-19 nM. […] As indicated, essentially all the tumor cells were killed at an MN20A10-MMAF concentration of 56 nM.
as §1

Experiment [3] relates to T47D wild-type breast cancer cells. The settings on record: for concentration showing potent / effective / comparable killing: after 120 hours; for ADC concentration at which essentially all the tumor cells were killed: readout 120 hours post ADC addition, DAR: MNC2-MMAE 4.1, MN20A10-MMAE 5.8, MNC2-MMAF 3.7, MN20A10-MMAF 3.8; for concentration at which target cells are effectively killed: within a 40 hour timeframe. The protocol:
FIGS. 49A-49J show traces from the real-time killing assays performed on an xCELLigence instrument. In this assay, impedance is measured in real-time. When the adherent cancer cells are killed and come off of the electrode surface, impedance (insulation) decreases. T47D wild-type breast cancer cells were plated onto multi-electrode-well plates at 5,000 cells per well and allowed to adhere and grow for 24 hours before the addition of ADCs. Either MNC2-MMAE, DAR 4.1, MN20A10-MMAE, DAR 5.8, MNC2-MMAF, DAR 3.7, MN20A10-MMAF, DAR 3.8, MNC2-Deruxtecan, DAR 7.2, or MN20A10-Deruxtecan, DAR 4.6, was then added to the cancer cells. […] Taxol and Triton are added as the positive killing control. […] Taxol and Triton are added as the positive killing control. […]
To assess real-time killing of target cancer cells including breast cancer cells (T47D), non-small cell lung cancer cells (NCI-H1975) and pancreatic cancer cells (HP AF II) assays were performed on an xCELLigence RTCA MP Instrument (Agilent). Target Cancer cells were seeded onto a multi-electrode well plate at a density of 5000 cells/well (100 μL of a 50,000 cells/mL stock) and incubated for 24 hr in a 37° C./5% CO2 incubator. mAb MNC2 ADCs or mAb MN20A10-ADCs were prepared as a 2× solution in corresponding growth media and 100 μL of each concentration was added to target cells. As a positive control (100% cell killing) cells were treated with either 1% triton or 1 μM Taxol instead of ADC. After 40-120 hours incubation in a 37° C./5% CO2 incubator cell killing was assessed. In this assay, impedance is measured in real-time. When the adherent cancer cells are killed and come off the electrode surface, impedance (insulation) decreases.
MNC2-ADCs and MN20A10-ADCs were also assayed for their ability to kill both low and high MUC1* expressing cells by monitoring killing in real-time using an xCELLigence instrument. In the xCelligence system, target cancer cells, which are adherent, are plated onto electrode array 96-well plates. Adherent cells insulate the electrode and increase the impedance. The number of adherent cancer cells is directly proportional to impedance. […] Therefore, increasing impedance reflects the growth of the cancer cells and decreasing impedance reflects the killing of the cancer cells.
Breast cancer cell line T47D-wt expresses MUC1* at low to low-medium levels. Pancreatic cancer cell line HPAF II-wt expresses even lower levels of MUC1* and lung cancer cell line NCI-H1975 express still lower levels of MUC1*.

B1: MN20A10-MMAF (conjugate)
VH: QVQLVESGGGLVKPGGSLRLSCAASGFTFSTYAMSWIRQAPGKGLEWVASIGRAGSTYYSDSVKGRFTISRDNAKNSLYLQMNSLRAEDTAVYYCARGPIYNDYDEFAYWGQGTLVTVSS
VL: EIVLTQSPATLSLSPGERATLSCKSSQSVLYSSNQKNYLAWYQQKPGQAPRLLIYWASTRESGIPARFSGSGSGTDFTLTISSLEPEDFAVYYCHQYLSSLTFGGGTKVEIKR
For B1, the “ADC concentration at which essentially all (nearly all, near total) tumor cells were killed” value in experiment [1] amounted to 56 nM. Besides, the “ADC concentration at which essentially all the tumor cells were killed” value in experiment [2] stood at 56 nM. In experiment [3], the “concentration showing potent / effective / comparable killing” value is 167 nM, the “ADC concentration at which essentially all the tumor cells were killed” value is on record as 167 nM and the “concentration at which target cells are effectively killed” value came out at 500 nM.

B2: MNC2-MMAF (conjugate)
VH: EVQLVESGGGLVKPGGSLRLSCAASGFTFSGYAMSWVRQAPGKGLEWVSTISSGGTYIYYPDSVKGRFTISRDNAKNSLYLQMNSLRAEDTAVYYCARLGGDNYYEYFDVWGKGTTVTVSS
VL: DIVLTQSPASLAVSPGQRATITCRASKSVSTSGYSYMHWYQQKPGQPPKLLIYLASNLESGVPARFSGSGSGTDFTLTINPVEANDTANYYCQHSRELPFTFGGGTKVEIKRT
B2: in experiment [1], the “ADC concentration at which essentially all (nearly all, near total) tumor cells were killed” value is 56 nM. The “ADC concentration at which essentially all the tumor cells were killed” value in experiment [2] is 56 nM. Moreover, in experiment [3], the “concentration showing potent / effective / comparable killing” value is recorded as 167 nM, the “ADC concentration at which essentially all the tumor cells were killed” value came out at 167 nM and the “concentration at which target cells are effectively killed” value turned out to be 500 nM.

B3: MNC2-Deruxtecan (conjugate)
VH: EVQLVESGGGLVKPGGSLRLSCAASGFTFSGYAMSWVRQAPGKGLEWVSTISSGGTYIYYPDSVKGRFTISRDNAKNSLYLQMNSLRAEDTAVYYCARLGGDNYYEYFDVWGKGTTVTVSS
VL: DIVLTQSPASLAVSPGQRATITCRASKSVSTSGYSYMHWYQQKPGQPPKLLIYLASNLESGVPARFSGSGSGTDFTLTINPVEANDTANYYCQHSRELPFTFGGGTKVEIKRT
B3: in experiment [1], the “ADC concentration at which essentially all (nearly all, near total) tumor cells were killed” value turned out to be 167 nM. Further, in experiment [2] (at 120 hours), the “concentration with significant killing” value is “about 56 nM”. In experiment [3], the “concentration showing potent / effective / comparable killing” value was 167 nM. Also, in experiment [3] (by 100 hours, DAR 7.2), the “concentration reaching approximately the same level of killing as MNC2-MMAE or -MMAF” value was found to be 167 nM.

Values taken from patent US12491259B2, “Anti-variable MUC1* antibodies and uses thereof” (Minerva Biotechnologies Corporation, priority 2022, dated 2025).
